According to the nanobody polyreactivity screen of Harvey et al. (2022):

Experiment: yeast display, Sf9 membrane polyspecificity reagent, FACS + sequencing; frameworks hold sequencing errors
How it was run: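 After 36–48 hours of galactose induction, yeast (Saccharomyces cerevisiae BJ5465) displaying a synthetic nanobody library were stained at 4 °C for 1 hour with 10% biotinylated, detergent-solubilized Sf9 membrane reagent. Streptavidin microbeads enriched the stained cells before FACS sorting into low and high (top ~1%) gates on anti-HA and streptavidin fluorescence. Each clone's polyreactivity label reflects its gate of origin.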

Sequence | polyreactivity (PSR sort gate)
QVPLVKSGAGFVQAGGILRLSCAASGRIFPFYVNGLARQAAGQERELVATINWSGGSTYYADSVKGRFTISRDNAKNTVYLQMNSLKPADTAVYYCAAAGIGGGGWGQGTQVTVSS | low polyreactivity
QVHSVESGGGLVQAGGSLRLSCSASGIIFYSYAMGWYRQAPGKERELVAGITIVGSTIYADSVKGRFTISRDNPKTTVYLQMISLKAEATAVYYCNKADLHFIEMDYWGQATQVTVSS | low polyreactivity
QVQLVESGGGLVQAGGSLRLSCAASGSIFVGYAMGWYRQAPGKERELVAAISQRGGITYYADSVKGRFTISRDNAKNTVYLQMNSLKPEDTAVYYCAAPRYLSYVRRYDYWGQGTQVTVSS | high polyreactivity
QVQLVESGGGLVQAGGSLRLSCAASGNIFLFYVMAWYRQAPGKERELVAAITLSGTNTYYADSVKGRFTISRDNAKNTVYLQMNSLKPDDTAVYYCAAEPKTYDWYPWGQVIENYWGQGTQVTVSS | low polyreactivity
QVQLVESGGGLVQAGGSLRLSCAASGFIFRGYAMGWYRQAPGKERELVAAINYSGGSTYYADSVKGRFTISRDNAKNTVYLQMNSLKPEDTAVYYCAAGKRGDDDYWGQGTQVTVSS | high polyreactivity
QVQIVESGGGLFQAGGSRRLSCAASGVMFSYYAMGWYRQAPGKDRELVAAISRRVGSTYYADSVKGRFTISRDNAKNTVYLQMNSLITQVTAVYYWNAYLYSRYEFDYWVQGTQVTVSS | high polyreactivity
QDQLVESGGGLVQAGGSLRLSCAASGSISVANAMGWYRQAPGKERELVAAISWRSDSTYYADSVKGRFTISRDNAKNTVYLQMNSLKPEDTAVYYCAASQYPLIWYDYWGQGTQVTVSS | low polyreactivity
QVQLVESGGGLVQAGGSLRLSCAASGSTFPRNAMGWSRQAPGKERELVAAISFRGSTTYYADSVKGRFTISRDNAKNTVYLQMNSLKPEDTAVYYCAADGGRQARTYSRYYWGQGTQVTVSS | high polyreactivity
QVQLVESGGGLVQAGGSLRLSCAASGSIFGAYAMGWYRQAPGKERELVAAISSSVDRTYYADSVKGRFTISRDNAKNTVYLQMNSLKPEDTAVYYCAARWGTRDRTKYYYWGQGTQVTVSS | high polyreactivity
QVQLVESGGGLVQAGGSLRLSCAASGSIFGWYAMGWYRQAPGKERELVAAITFSSVSTYYADSVKGRFTISRDTAKNTVYLQMNSLKPEDTAVYYCAAVVYYTFDYWGQGTQVTVSS | low polyreactivity
QVKLVESGGGLVQAGGSLRLSCAASGRIFQPYAMGWYRQAPGKERELVADITYRDGSTYFADSVKGRFTISRDNAKNTVYLQMNSLKPEDTAVYYCNADGEYAKDDWFHWYDYWGQGTQVTVSS | high polyreactivity
QVQLVESGGGLVQAGGSLRLSCAASGSIIWLYAMGWYRQAPGKERELVAAISSGGSTYYADSVKGRFTISRDNAKNTVYLQMNSLKPEDTAVYYCAATYSSFRRYPGAHYRFGYWGQGSQVTVSS | high polyreactivity
QVQLVESGGGLVQAGGSLRLSCAASGNAIGWYRQAPGKERELVASINRSGGRTYYADSVKGRFTISRDNAKNTVYLQMNSLKPEDTAVYYCAARTHYDSDYWGQGTQVTVSS | low polyreactivity
QVQLVESGGGLVQAGGSLRLSCAASGRILPSNAMGWYRQAPGKERELVAAIRSGDRTYYADSVKGRFTISRDNAKNTVYLQMNSLKPEDTAVYYCAAFYHHYYRYDYWGQGTQVTVSS | low polyreactivity
QVHLVESGGCLVQAGGSLRLSSAASASIFYYNTMGWYIQAPGKERELVATNSSDGGTNYADSVKGRFTISRDNAKNTVYLQMNSLKPEDTAVYYCAAAVSPYSYWPGFDYWGQGTQVTVSS | low polyreactivity
QVQLVESGGGLVQAGGSLRLSCAASGFTFVRNAMGWYRQAPGKEREFVAAITWTGGSTSYADSVKGRFTISRDNAMITVYLQMNSLKPEDTAVYYCDAVGYGYGFEYWGQGTQVTVSA | high polyreactivity
